One block for each binder: values may come before it.
Key:
[1] = target: T1, human insulin receptor (IR) on human IM-9 cells (human, UniProt P06213 28-1382); experiment: competition with biotinylated RHI on IM-9 cells, flow cytometry, 4 C
T1 construct: whole, on cells; also called human IR

biotinylated canine FcRn [2] = target: T2, biotinylated canine FcRn (canine, UniProt A0A8I3PFR8 25-347, biotinylated, site not stated); experiment: FcRn ELISA; species of FcRn not given, taken as canine
Experimental: (§1) Insulin-Fc fusion proteins comprising Fc fragments of canine origin were diluted to 10 µg/ml in sodium bicarbonate pH 9.6 buffer and coated in duplicate on Maxisorb ELISA plate strips for 1-2 hours at RT. The strips were then washed 4 times with PBST (PBS/0.1% Tween-20) buffer and blocked with Superblock blocking reagent (ThermoFisher). Strips for FcRn binding were then washed again twice with pH 5.5 MES/NaCl/Tween (50 mM MES/150mM NaCl/0.1% Tween-20) buffer before addition of the FcRn reagent (biotinylated canine FcRn; Immunitrack). Serial dilutions (1:3X dilutions) of biotinylated FcRn reagent were prepared in pH 5.5 MES/NaCl/Tween/10%Superblock buffer at concentrations from 1000 ng/ml to 0.45 ng/mL and loaded at 100 µL/well using a multichannel pipettor onto the strips coated with the insulin-Fc fusion protein compounds. The assay plate was then incubated for 1 hour at room temperature. FcRn binding strips were washed 4 times with pH 5.5 MES/NaCl/Tween buffer and then loaded with 100 µl/well streptavidin-HRP diluted 1:10000 in pH 5.5 MES/NaCl /10%Superblock buffer. After incubating for 45 minutes, strips were washed again 4 times with pH 5.5 MES/NaCl/Tween buffer. […] The plate was read in an ELISA plate reader at a wavelength of 450 nm. […] EC50 values for each binding curve were calculated to compare between different compounds.

[3] = target: T3, biotinylated recombinant human Fc(gamma)RI (human, UniProt P12314 16-288, biotinylated, site not stated); experiment: ELISA, fusion protein coated, biotinylated rhFc(gamma)RI at 3000 ng/mL
T3 construct: Bought reagent; construct not described; also called rhFc(gamma)RI; Fc(gamma) receptor I
T3 sequence (P12314 16-288 limits assumed): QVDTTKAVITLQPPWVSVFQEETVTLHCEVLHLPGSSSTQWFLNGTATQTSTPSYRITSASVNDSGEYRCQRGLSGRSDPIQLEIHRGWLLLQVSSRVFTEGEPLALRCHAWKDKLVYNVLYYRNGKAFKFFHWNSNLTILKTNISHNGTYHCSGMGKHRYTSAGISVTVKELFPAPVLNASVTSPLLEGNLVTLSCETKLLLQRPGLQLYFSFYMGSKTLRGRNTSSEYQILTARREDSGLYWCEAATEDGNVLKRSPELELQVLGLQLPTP

[4] = target: T1, human insulin receptor (IR) on human …; experiment: competition with biotinylated RHI on IM-9 cells, flow cytometry, 4 C; material purified by Protein G
Experimental: (§2) 40 µL of an IM-9 cell suspension (8×10⁶ cells/mL) was then added to each well by multichannel pipette, mixed again gently and incubated on ice for 30 min to allow competitive binding on the IR on IM-9 cells. Cells were then washed twice with 275µL of ice-cold FACS wash buffer (HBSS/2mM EDTA/0.1% Na-azide + 0.5% horse serum) by centrifuging the V-bottom plate at 3000 rpm for 3 min and aspirating the supernatant. Cells were then resuspended in 40µL of FACS staining medium containing 1:100 diluted Streptavidin-PE (Life Technologies) for 20 min on ice. Cells were then washed once with 275 µL of ice-cold FACS buffer and finally fixed with 3% paraformaldehyde for 10 min at room temp. Cells were then washed once with 275 µL of ice-cold FACS buffer and resuspended in 250µl of FACS buffer for analysis.
(§3) The insulin-Fc fusion proteins were manufactured in HEK293 cells according to Example 1 and purified using a Protein A or Protein G columns according to Example 4. […] Their %homodimer content was measured by size-exclusion chromatography according to Example 10, and their insulin receptor binding affinities were measured according to Example 12. Additionally, the insulin-Fc fusion protein affinities for the canine FcRn receptor were measured according to Example 15.

biotinylated canine FcRn [5] = target: T2, biotinylated canine FcRn; experiment: ELISA pH 5.5, fusion protein coated, biotinylated canine FcRn titrated
Experimental: as §1

[6] = target: T1, human insulin receptor (IR) on human …; experiment: competition with biotinylated RHI on IM-9 cells, flow cytometry, 4 C; material purified via Protein A
Experimental: as §2, §3

T1 sequence (P06213 28-1382): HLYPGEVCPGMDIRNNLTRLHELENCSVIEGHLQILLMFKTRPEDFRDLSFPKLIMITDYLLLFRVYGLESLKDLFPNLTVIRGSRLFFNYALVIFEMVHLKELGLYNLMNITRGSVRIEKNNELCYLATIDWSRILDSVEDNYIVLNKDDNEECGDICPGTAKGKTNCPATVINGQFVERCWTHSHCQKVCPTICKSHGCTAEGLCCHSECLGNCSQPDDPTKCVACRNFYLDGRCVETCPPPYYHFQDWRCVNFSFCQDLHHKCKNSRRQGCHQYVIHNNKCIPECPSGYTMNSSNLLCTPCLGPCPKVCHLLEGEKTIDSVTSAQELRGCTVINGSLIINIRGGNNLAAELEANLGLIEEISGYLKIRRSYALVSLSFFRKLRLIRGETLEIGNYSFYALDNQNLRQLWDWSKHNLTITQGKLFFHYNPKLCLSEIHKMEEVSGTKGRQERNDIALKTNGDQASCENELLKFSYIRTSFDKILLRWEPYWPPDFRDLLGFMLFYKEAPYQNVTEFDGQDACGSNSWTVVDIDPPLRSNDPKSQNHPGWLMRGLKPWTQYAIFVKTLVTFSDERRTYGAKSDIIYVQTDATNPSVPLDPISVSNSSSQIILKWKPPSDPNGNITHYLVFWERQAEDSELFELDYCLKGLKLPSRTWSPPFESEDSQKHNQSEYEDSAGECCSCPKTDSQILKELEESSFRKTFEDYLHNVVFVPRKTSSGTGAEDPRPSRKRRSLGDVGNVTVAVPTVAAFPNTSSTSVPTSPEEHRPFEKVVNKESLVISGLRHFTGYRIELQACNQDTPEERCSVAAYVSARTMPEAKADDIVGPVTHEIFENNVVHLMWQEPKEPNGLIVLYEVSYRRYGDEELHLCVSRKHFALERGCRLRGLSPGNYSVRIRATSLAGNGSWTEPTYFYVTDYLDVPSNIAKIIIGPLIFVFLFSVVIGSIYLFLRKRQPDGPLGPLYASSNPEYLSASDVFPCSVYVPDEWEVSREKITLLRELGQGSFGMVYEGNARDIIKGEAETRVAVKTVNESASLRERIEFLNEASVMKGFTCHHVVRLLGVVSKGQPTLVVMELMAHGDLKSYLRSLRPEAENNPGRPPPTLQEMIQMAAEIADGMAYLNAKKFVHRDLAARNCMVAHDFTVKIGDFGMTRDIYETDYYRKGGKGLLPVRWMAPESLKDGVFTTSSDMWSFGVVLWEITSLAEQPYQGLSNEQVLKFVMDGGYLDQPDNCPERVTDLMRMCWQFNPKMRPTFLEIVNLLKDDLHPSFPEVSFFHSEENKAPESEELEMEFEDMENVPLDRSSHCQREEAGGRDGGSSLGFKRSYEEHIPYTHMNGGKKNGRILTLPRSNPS
T2 sequence (A0A8I3PFR8 entry or part of it): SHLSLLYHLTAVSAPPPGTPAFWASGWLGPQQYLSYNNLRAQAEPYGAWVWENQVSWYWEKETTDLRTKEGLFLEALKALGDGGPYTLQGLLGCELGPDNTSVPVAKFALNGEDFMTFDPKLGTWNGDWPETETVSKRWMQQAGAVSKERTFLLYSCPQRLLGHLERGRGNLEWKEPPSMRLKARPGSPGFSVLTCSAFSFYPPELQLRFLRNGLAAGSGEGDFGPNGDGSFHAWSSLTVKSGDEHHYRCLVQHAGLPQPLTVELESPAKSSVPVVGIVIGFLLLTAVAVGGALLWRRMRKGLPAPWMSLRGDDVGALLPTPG

IC50 [1]: 2040 nM
EC50 (biotinylated canine FcRn [2]): 1.19 µg/mL
OD450nm [3]: 0.177
OD450nm minus assay background [3]: 0.12
ratio to SEQ ID NO: 36 [3]: 0.32
B1: insulin-Fc fusion protein of SEQ ID NO: 30 (Fc fusion)
chain: FVNQHLCGSHLVEALALVCGERGFHYGGGGGGSGGGGGIVEQCCTSTCSLDQLENYCGGGGGQGGGGQGGGGQGGGGGDCPKCPAPEMLGGPSVFIFPPKPKDTLLIARTPEVTCVVVDLDPEDPEVQISWFVDGKQMQTAKTQPREEQFSGTYRVVSVLPIGHQDWLKGKQFTCKVNNKALPSPIERTISKARGQAHQPSVYVLPPSREELSKNTVSLTCLIKDFFPPDIDVEWQSNGQQEPESKYRTTPPQLDEDGSYFLYSKLSVDKSRWQRGDTFICAVMHEALHNHYTQESLSHSPG

IC50 [4]: 2080 nM
B2: insulin-Fc fusion protein of SEQ ID NO: 59 (Fc fusion)
chain: FVNQHLCGSHLVEALELVCGERGFHYGGGGGGSGGGGGIVEQCCTSTCSLDQLENYCGGGGGQGGGGQGGGGQGGGGGCNNCPCPGCGLLGGPSVFIFPPKPKDILVTARTPTVTCVVVDLDPENPEVQISWFVDSKQVQTANTQPREEQSNGTYRVVSVLPIGHQDWLSGKQFKCKVNNKALPSPIEEIISKTPGQAHQPNVYVLPPSRDEMSKNTVTLTCLVKDFFPPEIDVEWQSNGQQEPESKYRMTPPQLDEDGSYFLYSKLSVDKSRWQRGDTFICAVMHEALHNHYTQISLSHSPG
notes: purified by Protein G

EC50 (biotinylated canine FcRn [5]): 1.61 µg/mL
OD450nm [3]: 0.253
OD450nm minus assay background [3]: 0.196
ratio to SEQ ID NO: 36 [3]: 0.53
IC50 [6]: 2590 nM
B3: insulin-Fc fusion protein of SEQ ID NO: 58 (Fc fusion)
chain: FVNQHLCGSHLVEALELVCGERGFHYGGGGGGSGGGGGIVEQCCTSTCSLDQLENYCGGGGGQGGGGQGGGGQGGGGGRCTDTPPCPVPEPLGGPSVLIFPPKPKDILRITRTPEVTCVVLDLGREDPEVQISWFVDGKEVHTAKTQSREQQFNGTYRVVSVLPIEHQDWLTGKEFKCRVNHIDLPSPIERTISKARGRAHKPSVYVLPPSPKELSSSDTVSITCLIKDFYPPDIDVEWQSNGQQEPERKHRMTPPQLDEDGSYFLYSKLSVDKSRWQQGDPFTCAVMHETLQNHYTDLSLSHSPG
notes: purified by Protein A or Protein G

Reference: patent publication US20230250148A1 (published 2023)
